US20220315554A1, “COMPOUNDS COMPRISING A […] LIGAND AND USE THEREOF” (priority 2019, published 2022)

What was measured:
[1] = target: T1, Cathepsin F (Homo sapiens (Human)) (UniProt Q9UBX1)
T1 sequence: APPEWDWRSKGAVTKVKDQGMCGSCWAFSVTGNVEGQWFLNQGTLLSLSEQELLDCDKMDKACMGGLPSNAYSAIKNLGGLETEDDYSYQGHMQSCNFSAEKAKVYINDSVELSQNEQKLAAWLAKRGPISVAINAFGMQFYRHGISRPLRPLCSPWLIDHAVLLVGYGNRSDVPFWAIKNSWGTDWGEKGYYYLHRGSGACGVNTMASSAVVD

[2] = target: T2, Ubiquitin carboxy-terminal hydrolase 2 (Homo sapiens (Human)) (UniProt O75604)
T2 sequence: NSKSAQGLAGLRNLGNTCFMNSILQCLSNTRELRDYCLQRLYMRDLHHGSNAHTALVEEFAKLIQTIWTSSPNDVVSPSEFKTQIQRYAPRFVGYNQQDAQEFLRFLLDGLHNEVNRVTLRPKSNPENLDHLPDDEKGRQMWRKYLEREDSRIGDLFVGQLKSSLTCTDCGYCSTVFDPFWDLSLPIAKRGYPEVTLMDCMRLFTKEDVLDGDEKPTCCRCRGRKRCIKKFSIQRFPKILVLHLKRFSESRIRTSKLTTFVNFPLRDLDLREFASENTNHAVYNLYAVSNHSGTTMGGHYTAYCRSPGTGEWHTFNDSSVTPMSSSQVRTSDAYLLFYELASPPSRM

[3] = target: Cathepsin B (Homo sapiens (Human)) (UniProt P07858)
[4] = target: T3, Caspase-7 (Homo sapiens (Human)) (UniProt P55210)
T3 sequence: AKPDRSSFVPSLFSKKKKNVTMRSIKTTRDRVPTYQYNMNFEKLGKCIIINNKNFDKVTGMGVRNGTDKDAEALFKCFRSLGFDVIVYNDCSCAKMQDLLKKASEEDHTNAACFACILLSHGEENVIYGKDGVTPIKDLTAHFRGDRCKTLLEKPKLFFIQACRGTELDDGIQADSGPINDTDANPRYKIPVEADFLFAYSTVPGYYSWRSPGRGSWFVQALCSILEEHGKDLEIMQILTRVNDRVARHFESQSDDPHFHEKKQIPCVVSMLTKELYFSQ

[5] = target: FAP (Homo sapiens (Human)) (UniProt Q12884)
Sequence of FAP (Homo sapiens (Human)) (Q12884 26-760 limits assumed): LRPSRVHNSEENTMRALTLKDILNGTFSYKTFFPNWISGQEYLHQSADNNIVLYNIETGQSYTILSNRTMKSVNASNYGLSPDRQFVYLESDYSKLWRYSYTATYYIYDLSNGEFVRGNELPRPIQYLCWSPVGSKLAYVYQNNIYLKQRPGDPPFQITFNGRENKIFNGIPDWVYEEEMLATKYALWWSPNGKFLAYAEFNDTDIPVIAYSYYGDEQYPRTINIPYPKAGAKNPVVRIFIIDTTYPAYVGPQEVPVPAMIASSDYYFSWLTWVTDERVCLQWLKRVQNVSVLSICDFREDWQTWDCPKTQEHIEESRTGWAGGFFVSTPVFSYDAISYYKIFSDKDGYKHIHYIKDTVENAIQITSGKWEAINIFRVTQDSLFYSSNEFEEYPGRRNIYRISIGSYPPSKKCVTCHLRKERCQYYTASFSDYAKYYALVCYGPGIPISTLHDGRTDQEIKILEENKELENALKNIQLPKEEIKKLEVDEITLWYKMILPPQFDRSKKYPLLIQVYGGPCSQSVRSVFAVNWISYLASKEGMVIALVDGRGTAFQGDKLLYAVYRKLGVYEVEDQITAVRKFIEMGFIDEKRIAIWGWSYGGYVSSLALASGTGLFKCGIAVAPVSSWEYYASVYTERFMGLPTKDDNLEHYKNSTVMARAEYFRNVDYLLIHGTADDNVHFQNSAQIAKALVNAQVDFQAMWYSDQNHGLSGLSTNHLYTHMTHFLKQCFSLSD

[6] = target: Cathepsin L (Homo sapiens (Human)) (UniProt P07711)
[7] = target: Matrix metalloprotease1 (Homo sapiens (Human)) (UniProt P03956)
Sequence of Matrix metalloprotease1 (Homo sapiens (Human)) (P03956 100-469): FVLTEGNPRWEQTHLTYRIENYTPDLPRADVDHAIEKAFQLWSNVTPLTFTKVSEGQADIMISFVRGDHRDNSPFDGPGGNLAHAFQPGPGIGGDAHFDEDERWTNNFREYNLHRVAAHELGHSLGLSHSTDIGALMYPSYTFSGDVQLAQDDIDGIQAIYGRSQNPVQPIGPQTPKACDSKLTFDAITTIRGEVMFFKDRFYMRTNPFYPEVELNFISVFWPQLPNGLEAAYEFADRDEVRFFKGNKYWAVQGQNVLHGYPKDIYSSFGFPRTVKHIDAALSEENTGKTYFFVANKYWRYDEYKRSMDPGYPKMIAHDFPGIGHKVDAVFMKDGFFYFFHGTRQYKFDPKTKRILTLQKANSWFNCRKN

[8] = target: DPP8 (Homo sapiens (Human)) (UniProt Q6V1X1)
[9] = target: Activated Protein C (Homo sapiens (Human)) (UniProt P04070)
Sequence of Activated Protein C (Homo sapiens (Human)) (P04070 43-461): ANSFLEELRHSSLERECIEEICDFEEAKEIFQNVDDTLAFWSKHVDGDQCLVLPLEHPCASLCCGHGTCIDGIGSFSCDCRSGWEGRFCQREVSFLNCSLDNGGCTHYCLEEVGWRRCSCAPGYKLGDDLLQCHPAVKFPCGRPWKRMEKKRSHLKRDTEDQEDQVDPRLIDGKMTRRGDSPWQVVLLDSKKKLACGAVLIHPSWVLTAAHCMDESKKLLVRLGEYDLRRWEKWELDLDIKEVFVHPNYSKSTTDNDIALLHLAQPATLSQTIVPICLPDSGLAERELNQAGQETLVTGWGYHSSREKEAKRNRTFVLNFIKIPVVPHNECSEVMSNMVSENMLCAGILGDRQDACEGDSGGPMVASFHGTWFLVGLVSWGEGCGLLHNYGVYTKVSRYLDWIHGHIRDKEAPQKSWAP

[10] = target: Ubiquitin carboxy-terminal hydrolase 5 (Homo sapiens (Human)) (UniProt P45974)
Sequence of Ubiquitin carboxy-terminal hydrolase 5 (Homo sapiens (Human)) (P45974 whole entry): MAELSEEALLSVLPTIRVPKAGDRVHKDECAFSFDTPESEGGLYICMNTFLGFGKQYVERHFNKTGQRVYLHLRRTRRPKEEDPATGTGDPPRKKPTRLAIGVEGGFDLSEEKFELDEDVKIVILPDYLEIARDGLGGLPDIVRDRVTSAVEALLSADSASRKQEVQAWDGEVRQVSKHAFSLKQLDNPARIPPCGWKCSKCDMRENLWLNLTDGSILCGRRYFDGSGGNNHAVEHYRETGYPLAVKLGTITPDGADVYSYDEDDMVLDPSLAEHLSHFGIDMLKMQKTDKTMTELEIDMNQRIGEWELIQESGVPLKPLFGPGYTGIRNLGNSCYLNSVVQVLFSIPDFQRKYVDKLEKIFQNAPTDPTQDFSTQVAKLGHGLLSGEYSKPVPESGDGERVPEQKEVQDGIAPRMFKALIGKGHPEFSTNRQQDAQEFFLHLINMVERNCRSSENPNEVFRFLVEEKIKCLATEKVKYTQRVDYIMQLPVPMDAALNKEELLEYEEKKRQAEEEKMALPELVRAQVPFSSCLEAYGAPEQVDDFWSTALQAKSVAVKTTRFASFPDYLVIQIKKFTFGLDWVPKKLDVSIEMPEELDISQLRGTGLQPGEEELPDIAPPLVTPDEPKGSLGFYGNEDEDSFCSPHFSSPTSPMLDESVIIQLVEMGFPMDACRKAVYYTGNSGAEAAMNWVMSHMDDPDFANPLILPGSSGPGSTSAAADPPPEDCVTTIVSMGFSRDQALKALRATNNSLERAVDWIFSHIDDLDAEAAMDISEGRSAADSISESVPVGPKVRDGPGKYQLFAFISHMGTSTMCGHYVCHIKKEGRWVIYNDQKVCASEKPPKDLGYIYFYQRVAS

[11] = target: Ubiquitin carboxy-terminal hydrolase 7 (Homo sapiens (Human)) (UniProt Q93009)
[12] = target: Matrix metalloprotease 9 (mutant Q279R) (Homo sapiens (Human)) (UniProt P14780)
[13] = target: Caspase-9 (Homo sapiens (Human)) (UniProt P55211)
Sequence of Caspase-9 (Homo sapiens (Human)) (P55211 whole entry): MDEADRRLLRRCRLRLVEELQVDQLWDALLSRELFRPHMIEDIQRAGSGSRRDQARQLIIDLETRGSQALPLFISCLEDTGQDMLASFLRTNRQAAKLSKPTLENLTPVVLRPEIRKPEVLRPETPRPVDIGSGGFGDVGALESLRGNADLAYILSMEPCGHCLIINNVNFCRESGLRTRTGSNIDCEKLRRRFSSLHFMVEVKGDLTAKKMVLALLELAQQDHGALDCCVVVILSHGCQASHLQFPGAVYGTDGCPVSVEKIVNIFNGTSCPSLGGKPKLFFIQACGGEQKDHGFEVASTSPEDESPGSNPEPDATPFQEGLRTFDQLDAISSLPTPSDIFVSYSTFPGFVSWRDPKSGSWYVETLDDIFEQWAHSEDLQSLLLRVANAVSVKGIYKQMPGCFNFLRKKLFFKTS

[14] = target: Cathepsin V (Homo sapiens (Human)) (UniProt O60911)
[15] = target: T4, Caspase-6 (Homo sapiens (Human)) (UniProt P55212)
T4 sequence: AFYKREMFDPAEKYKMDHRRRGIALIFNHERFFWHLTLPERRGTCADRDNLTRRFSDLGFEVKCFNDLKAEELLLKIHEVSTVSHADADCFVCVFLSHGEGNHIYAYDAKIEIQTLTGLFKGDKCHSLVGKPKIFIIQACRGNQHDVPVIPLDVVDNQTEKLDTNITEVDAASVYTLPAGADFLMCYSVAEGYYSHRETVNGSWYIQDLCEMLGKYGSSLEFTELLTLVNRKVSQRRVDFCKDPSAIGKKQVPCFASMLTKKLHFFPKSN

[16] = target: T5, Renin (Homo sapiens (Human)) (UniProt P00797)
T5 sequence: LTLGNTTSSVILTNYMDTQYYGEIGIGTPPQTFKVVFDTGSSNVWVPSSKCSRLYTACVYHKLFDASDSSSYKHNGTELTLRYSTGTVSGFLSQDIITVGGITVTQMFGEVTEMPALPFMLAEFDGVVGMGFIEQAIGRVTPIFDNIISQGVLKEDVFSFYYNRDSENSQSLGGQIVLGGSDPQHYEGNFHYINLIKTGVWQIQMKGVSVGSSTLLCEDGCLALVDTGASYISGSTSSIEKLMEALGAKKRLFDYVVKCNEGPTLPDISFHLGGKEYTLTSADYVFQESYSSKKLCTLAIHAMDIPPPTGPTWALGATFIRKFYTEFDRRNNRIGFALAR

[17] = target: Ubiquitin carboxy-terminal hydrolase 8 (Homo sapiens (Human)) (UniProt P40818)
[18] = target: Beta secretase (Homo sapiens (Human)) (UniProt P56817)
[19] = target: T6, Caspase-3 (Homo sapiens (Human)) (UniProt P42574)
T6 sequence: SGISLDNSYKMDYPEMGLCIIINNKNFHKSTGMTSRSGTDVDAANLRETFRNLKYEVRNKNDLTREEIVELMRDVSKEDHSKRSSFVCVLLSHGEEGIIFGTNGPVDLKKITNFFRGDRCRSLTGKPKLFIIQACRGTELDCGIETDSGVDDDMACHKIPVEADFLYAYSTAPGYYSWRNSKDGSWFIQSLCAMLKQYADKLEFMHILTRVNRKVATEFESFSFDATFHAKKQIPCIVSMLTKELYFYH

[20] = target: DPP7 (Homo sapiens (Human)) (UniProt Q9UHL4)
[21] = target: T7, Deubiquitinase OTUD6B (Homo sapiens (Human)) (UniProt Q8N6M0)
T7 sequence: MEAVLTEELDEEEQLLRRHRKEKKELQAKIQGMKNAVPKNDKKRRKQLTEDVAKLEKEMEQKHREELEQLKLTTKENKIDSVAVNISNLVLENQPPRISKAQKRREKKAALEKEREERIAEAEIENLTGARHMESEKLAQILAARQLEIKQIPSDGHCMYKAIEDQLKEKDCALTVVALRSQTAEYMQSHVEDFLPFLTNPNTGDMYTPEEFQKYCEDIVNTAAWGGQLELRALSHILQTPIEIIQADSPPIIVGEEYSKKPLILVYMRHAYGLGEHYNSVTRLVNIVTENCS

Percentage inhibition (%) at 10 µM [1] [%] | Percentage inhibition (%) at 10 µM [2] [%] | Percentage inhibition (%) at 10 µM [3] [%] | Percentage inhibition (%) at 10 µM [4] [%] | Percentage inhibition (%) at 1 µM [5] [%] | Percentage inhibition (%) at 10 µM [6] [%] | Percentage inhibition (%) at 10 µM [7] [%] | Percentage inhibition (%) at 10 µM [8] [%] | Percentage inhibition (%) at 10 µM [9] [%] | Percentage inhibition (%) at 10 µM [10] [%] | Percentage inhibition (%) at 10 µM [11] [%] | Percentage inhibition (%) at 10 µM [12] [%] | Percentage inhibition (%) at 10 µM [13] [%] | Percentage inhibition (%) at 10 µM [14] [%] | Percentage inhibition (%) at 10 µM [15] [%] | Percentage inhibition (%) at 10 µM [16] [%] | Percentage inhibition (%) at 10 µM [17] [%] | Percentage inhibition (%) at 10 µM [18] [%] | Percentage inhibition (%) at 10 µM [19] [%] | Percentage inhibition (%) at 10 µM [20] [%] | Substance | also measured
-24 | 7 | 36 | -3 | 98 | 6 | 2 | 5 | 8 | 46 | 5 | 2 | 8 | -18 | -1 | 3 | 6 | -5 | -2 | -3 | Hex-[Cys(tMeBn(DOTA-PP))-Pro-Pro-Thr-Gln-Phe-Cys]-Asp-NH2 (peptide) | Percentage inhibition (%) at 10 µM [21]: 15%
-25 | -1 | 2 | -7 | 97 | -6 | -7 | 11 | 1 | -2 | 1 | 2 | -2 | -1 | -3 | -1 | 1 | 7 | -1 | -7 | Hex-[Cys(tMeBn(DOTA-AET))-Pro-Pro-Thr-Gln-Phe-Cys]-OH (peptide) | Percentage inhibition (%) at 10 µM [21]: 0%
